The target in experiment [1] is T1, TNF-α (UniProt P01375 77-233, biotinylated (sites not given)).
T1 construct: Bought protein; also called biotintylated TNF-α soluble protein
The experiment in a line: Octet BLI, biotinylated TNF-α on streptavidin tips, A6+Fc at 370 nM. On the procedure:
(§1) The target protein was biotintylated TNF-α soluble protein (R&D Systems) and is at a concentration of 0.25 ug/ml for loading onto the streptavidin sensor tips. […] The Octet was run using the manufacturers protocol for Basic Kinetic Assay.
Background: BLI is a label-free optical method that tracks binding on a fibre tip over time.

For experiment [2], the target named is T1, TNF-α. Briefly: Octet BLI, biotinylated TNF-α on streptavidin tips, A6 at 290 nM. The protocol: as §1
For the next experiment, the target named is T2, HMGB1 (UniProt P09429 1-215, limits assumed, biotinylated in the RAGE assay (sites not given)).
T2 construct: also called biotinylated HMGB1
T2 sequence (looked up): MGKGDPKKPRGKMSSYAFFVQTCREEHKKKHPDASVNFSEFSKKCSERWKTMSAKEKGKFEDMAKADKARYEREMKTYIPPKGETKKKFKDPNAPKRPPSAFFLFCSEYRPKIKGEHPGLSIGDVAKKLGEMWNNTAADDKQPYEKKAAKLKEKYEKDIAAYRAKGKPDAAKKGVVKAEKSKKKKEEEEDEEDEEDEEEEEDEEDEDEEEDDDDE
The experiment in a line: Octet BLI. An excerpt:
We measured association and disassociation rates using the Octet (FIG. 26C).

“And” between values parts separate entries of the source, which are not always exact repeats. Equal values may be shown once.

T1 sequence (P01375 77-233 limits assumed): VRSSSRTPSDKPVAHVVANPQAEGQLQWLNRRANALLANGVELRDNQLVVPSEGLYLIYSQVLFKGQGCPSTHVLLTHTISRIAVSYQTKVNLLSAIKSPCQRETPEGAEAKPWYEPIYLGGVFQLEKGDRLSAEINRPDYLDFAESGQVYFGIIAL

B1: R41A6 Fc fusion protein (A6+Fc) (Fc fusion)
chain: NVSPPRRARVTDATETTITISWEHSEDDCYSYIYYFQVDAVPANGQTPIQRTISGYETYYTITGLQPGTDYKIYLYTLNSAGFCPPYSKPVVIDAST
notes: Expressed in E. coli BL-21(DE3) from pET-20b with pelB signal; it calls A6 alone monomeric; also called pET-20b+TNF A6+Fc #39; 14FN3-Fc fusion; not shown: C-terminal hexahistidine tag of pET-20b
A word on the Kd: it is the free concentration of one partner at which half of the binding sites on the other are occupied at equilibrium, for simple one-to-one binding. What is called koff is a measure of how fast the partners let go of each other. A low value points to a long-lived complex. A word on the kon: it is the rate constant with which the complex forms. A low value points to slow association. Take B1: in the experiment with TNF-α [1], the Kd is 24.8 nM and 14.9 nM and 11.7 nM; the koff is 0.000226 s⁻¹ and 0.00022 s⁻¹ and 0.000229 s⁻¹; the kon is 9120 M⁻¹ s⁻¹ and 14900 M⁻¹ s⁻¹ and 19500 M⁻¹ s⁻¹.

B2: TNF-α binder R41A6 (designed binder)
chain: B1 chain
notes: 14FN3 scaffold variant from the tyrosine WTM library; Octet); The NcoI primer adds ATGGAA before the NVSPP start in the pET-20b construct; also called TNF A6; not shown: C-terminal hexahistidine tag from pET-20b (Octet), or c-myc + 6xHis tags from the phagemid (soluble ELISA)
With B2, the koff with TNF-α [2] was 0.000438 s⁻¹ and 0.000267 s⁻¹.

B3: P2F3 anti-HMGB1 (designed binder)
chain: NVSPPRRARVTDATETTITIRWGVPHSFQVDAVPANGQTPIQRTIKRGVRSYTITGLQPGTDYKIYLYTLNDNARSSPVVIDAST
notes: soluble 6xHis-tagged protein in Octet; not shown: C-terminal tags from the phagemid incl; 6xHis (soluble form)
In the experiment with HMGB1, B3 registered a Kd of 277 nM and a kon of 97900 M⁻¹ s⁻¹.
